The values below come from patent publication US20240084009A1 (HARPOON THERAPEUTICS, published 2024).

Positions count from the first letter of the chain named.

The chains are these.
T1: cyno CD3e (Macaca fascicularis (cynomolgus monkey), UniProt Q95LI5)
T1 construct: not described; also called cynomolgus CD3ε; cynomolgus CD3
T1 sequence (CD3 epsilon, looked up): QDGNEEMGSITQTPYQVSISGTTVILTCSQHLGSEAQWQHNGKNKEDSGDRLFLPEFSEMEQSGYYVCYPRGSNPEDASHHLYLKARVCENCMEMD

B1: Anti-CD3, clone 2G5 (scFv)
scFv: EVQLVESGGGLVQPGGSLKLSCAASGFTFNKYALNWVRQAPGKGLEWVARIRSKYNNYATEYADSVKDRFTISRDDSKNTAYLQMNNLKTEDTAVYYCVRHGNFGNSPISYWAYWGQGTLVTVSSGGGGSGGGGSGGGGSQTVVTQEPSLTVSPGGTVTLTCGSSTGAVTSGNYPNWVQQKPGQAPRGLIGGTNFLAPGTPERFSGSLLGGKAALTLSGVQPEDEAEYYCVLWYSNRWAFGGGTKLTVLHHHHHH
notes: Expressed in Expi293 from the pcDNA3.4 His6 vector
B2: Anti-CD3, clone 3F2 (scFv)
scFv: B1 scFv with F29Y, L34M, E61Y, S65E, T166K, N194K, F195E, E202A, V231T, A239V
notes: as for B1
B3: Anti-CD3, clone 6A2 (scFv)
scFv: EVQLVESGGGLVQPGGSLKLSCAASGFMFNKYAMNWVRQAPGKGLEWVARIRSKSNNYATYYADSVKDRFTISRDDSKNTAYLQMNNLKTEDTAVYYCVRHGNFGNSYISYWATWGQGTLVTVSSGGGGSGGGGSGGGGSQTVVTQEPSLTVSPGGTVTLTCGSSFGAVTSGNYPNWVQQKPGQAPRGLIGGTKLLAPGTPARFSGSLLGGKAALTLSGVQPEDEAEYYCVLWYSNSWVFGGGTKLTVLHHHHHH
notes: as for B1
B4: Anti-CD3, clone 10E4 (scFv)
scFv: EVQLVESGGGLVQPGGSLKLSCAASGFTFNKYPMNWVRQAPGKGLEWVARIRSKYNNYATYYADSVKDRFTISRDDSKNTAYLQMNNLKNEDTAVYYCVRHGNFNNSYISYWAYWGQGTLVTVSSGGGGSGGGGSGGGGSQTVVTQEPSLTVSPGGTVTLTCGSSTGAVTKGNYPNWVQQKPGQAPRGLIGGTKMLAPGTPARFSGSLLGGKAALTLSGVQPEDEAEYYCALWYSNRWVFGGGTKLTVLHHHHHH
notes: as for B1

The first assay deals with T2, biotinylated hu-CD3ε (human, UniProt P07766 23-126, limits assumed, biotinylated (site not stated)).
T2 construct: The construct is not described; also called biotin-CD3ε; human CD3ε
T2 sequence (P07766 23-126 limits assumed): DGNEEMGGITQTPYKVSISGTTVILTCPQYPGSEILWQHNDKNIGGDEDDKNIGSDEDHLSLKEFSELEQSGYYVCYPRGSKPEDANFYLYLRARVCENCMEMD
The assay can be described thus: kinetic Kd determination of the expressed scFv, method not named.
One may read the Kd as the concentration at which binding is half-saturated. The low end stands for tighter binding, the high end for weaker binding. What is called koff is the first-order rate constant of dissociation. Lower therefore signals a long-lived complex. A word on the kon: it is a measure of how fast the partners come together. For B1, the Kd was 117 nM, the koff came out at 0.115 s⁻¹ and the kon worked out at 994000 M⁻¹ s⁻¹.
In the same order, the values of B2 are 8 nM, 0.00502 s⁻¹ and 704000 M⁻¹ s⁻¹.
B3 gave a Kd of 4.7 nM, a koff of 0.00248 s⁻¹ and a kon of 522000 M⁻¹ s⁻¹.
In turn, B4 had a Kd of 49.8 nM, a koff of 0.026 s⁻¹ and a kon of 522000 M⁻¹ s⁻¹.

In a further assay the target is T1, cyno CD3e. The description is as above.
For B1, the Kd was found to be 115 nM, the koff stood at 0.111 s⁻¹ and the kon came to 964000 M⁻¹ s⁻¹.
The molecule B2 registered a Kd of 6.6 nM, an off-rate (koff) of 0.00438 s⁻¹ and a kon of 712000 M⁻¹ s⁻¹.
On to B3, for which the Kd came to 4.9 nM, the koff stood at 0.00222 s⁻¹ and the kon was 456000 M⁻¹ s⁻¹.
In the same order, the values of B4 are 46.8 nM, 0.0238 s⁻¹ and 508000 M⁻¹ s⁻¹.
